Earlier results in publication PMC3044768.
Like-named read-outs stand apart in the source and are kept apart here.

Experiments:
[1] = molecular target: SARS 3CLpro 3CLpro (Severe acute respiratory syndrome coronavirus) (UniProt P0C6X7); conditions: cited from earlier work
[2] = molecular target: SARS 3CLpro 3CLpro (Severe acute respiratory syndrome coronavirus) (UniProt P0C6X7); conditions: cited from earlier work; remark: listed apart in the source

SARS 3CLpro 3CLpro (from UniProt P0C6X7)
Kd [1]: 5.2 µM | Kd [2]: 12.7 µM
